Experimental data as given in paper PMC8298264, “Function of cofactor Akirin2 in the regulation of gene expression in model human neutrophil-like HL60 cells” (Bioscience Reports, 2021).

B1: sp¦P20340¦RAB6A_HUMAN (protein, UniProt P20340 2-208, looked up)
Ras-related protein Rab-6A: STGGDFGNPLRKFKLVFLGEQSVGKTSLITRFMYDSFDNTYQATIGIDFLSKTMYLEDRTVRLQLWDTAGQERFRSLIPSYIRDSTVAVVVYDITNVNSFQQTTKWIDDVRTERGSDVIIMLVGNKTDLADKRQVSIEEGERKAKELNVMFIETSAKAGYNVKQLFRRVAAALPGMESTQDRSREDMIDIKLEKPQEQPVSEGGCSC
B2: sp¦O75746¦CMC1_HUMAN (protein, UniProt O75746 2-678, looked up)
Electrogenic …: AVKVQTTKRGDPHELRNIFLQYASTEVDGERYMTPEDFVQRYLGLYNDPNSNPKIVQLLAGVADQTKDGLISYQEFLAFESVLCAPDSMFIVAFQLFDKSGNGEVTFENVKEIFGQTIIHHHIPFNWDCEFIRLHFGHNRKKHLNYTEFTQFLQELQLEHARQAFALKDKSKSGMISGLDFSDIMVTIRSHMLTPFVEENLVSAAGGSISHQVSFSYFNAFNSLLNNMELVRKIYSTLAGTRKDVEVTKEEFAQSAIRYGQVTPLEIDILYQLADLYNASGRLTLADIERIAPLAEGALPYNLAELQRQQSPGLGRPIWLQIAESAYRFTLGSVAGAVGATAVYPIDLVKTRMQNQRGSGSVVGELMYKNSFDCFKKVLRYEGFFGLYRGLIPQLIGVAPEKAIKLTVNDFVRDKFTRRDGSVPLPAEVLAGGCAGGSQVIFTNPLEIVKIRLQVAGEITTGPRVSALNVLRDLGIFGLYKGAKACFLRDIPFSAIYFPVYAHCKLLLADENGHVGGLNLLAAGAMAGVPAASLVTPADVIKTRLQVAARAGQTTYSGVIDCFRKILREEGPSAFWKGTAARVFRSSPQFGVTLVTYELLQRWFYIDFGGLKPAGSEPTPKSRIADLPPANPDHIGGYRLATATFAGIENKFGLYLPKFKSPSVAVVQPKAAVAATQ
B3: sp¦Q9Y276¦BCS1_HUMAN (protein, UniProt Q9Y276 2-419, looked up)
Mitochondrial chaperone BCS1: PLSDFILALKDNPYFGAGFGLVGVGTALALARKGVQLGLVAFRRHYMITLEVPARDRSYAWLLSWLTRHSTRTQHLSVETSYLQHESGRISTKFEFVPSPGNHFIWYRGKWIRVERSREMQMIDLQTGTPWESVTFTALGTDRKVFFNILEEARELALQQEEGKTVMYTAVGSEWRPFGYPRRRRPLNSVVLQQGLADRIVRDVQEFIDNPKWYTDRGIPYRRGYLLYGPPGCGKSSFITALAGELEHSICLLSLTDSSLSDDRLNHLLSVAPQQSLVLLEDVDAAFLSRDLAVENPVKYQGLGRLTFSGLLNALDGVASTEARIVFMTTNHVDRLDPALIRPGRVDLKEYVGYCSHWQLTQMFQRFYPGQAPSLAENFAEHVLRATNQISPAQVQGYFMLYKNDPVGAIHNAESLRR
B4: sp¦Q02218¦ODO1_HUMAN (protein, UniProt Q02218 41-1023, looked up)
2-oxoglutarate dehydrogenase …: SAPVAAEPFLSGTSSNYVEEMYCAWLENPKSVHKSWDIFFRNTNAGAPPGTAYQSPLPLSRGSLAAVAHAQSLVEAQPNVDKLVEDHLAVQSLIRAYQIRGHHVAQLDPLGILDADLDSSVPADIISSTDKLGFYGLDESDLDKVFHLPTTTFIGGQESALPLREIIRRLEMAYCQHIGVEFMFINDLEQCQWIRQKFETPGIMQFTNEEKRTLLARLVRSTRFEEFLQRKWSSEKRFGLEGCEVLIPALKTIIDKSSENGVDYVIMGMPHRGRLNVLANVIRKELEQIFCQFDSKLEAADEGSGDVKYHLGMYHRRINRVTDRNITLSLVANPSHLEAADPVVMGKTKAEQFYCGDTEGKKVMSILLHGDAAFAGQGIVYETFHLSDLPSYTTHGTVHVVVNNQIGFTTDPRMARSSPYPTDVARVVNAPIFHVNSDDPEAVMYVCKVAAEWRSTFHKDVVVDLVCYRRNGHNEMDEPMFTQPLMYKQIRKQKPVLQKYAELLVSQGVVNQPEYEEEISKYDKICEEAFARSKDEKILHIKHWLDSPWPGFFTLDGQPRSMSCPSTGLTEDILTHIGNVASSVPVENFTIHGGLSRILKTRGEMVKNRTVDWALAEYMAFGSLLKEGIHIRLSGQDVERGTFSHRHHVLHDQNVDKRTCIPMNHLWPNQAPYTVCNSSLSEYGVLGFELGFAMASPNALVLWEAQFGDFHNTAQCIIDQFICPGQAKWVRQNGIVLLLPHGMEGMGPEHSSARPERFLQMCNDDPDVLPDLKEANFDINQLYDCNWVVVNCSTPGNFFHVLRRQILLPFRKPLIIFTPKSLLRHPEARSSFDEMLPGTHFQRVIPEDGPAAQNPENVKRLLFCTGKVYYDLTRERKARDMVGQVAITRIEQLSPFPFDLLLKEVQKYPNAELAWCQEEHKNQGYYDYVKPRLRTTISRAKPVWYAGRDPAAAPATGNKKTHLTELQRLLDTAFDLDVFKNFS
B5: sp¦Q9UGP8¦SEC63_HUMAN (protein, UniProt Q9UGP8 1-760, looked up)
Translocation protein SEC63 …: MAGQQFQYDDSGNTFFYFLTSFVGLIVIPATYYLWPRDQNAEQIRLKNIRKVYGRCMWYRLRLLKPQPNIIPTVKKIVLLAGWALFLFLAYKVSKTDREYQEYNPYEVLNLDPGATVAEIKKQYRLLSLKYHPDKGGDEVMFMRIAKAYAALTDEESRKNWEEFGNPDGPQATSFGIALPAWIVDQKNSILVLLVYGLAFMVILPVVVGSWWYRSIRYSGDQILIRTTQIYTYFVYKTRNMDMKRLIMVLAGASEFDPQYNKDATSRPTDNILIPQLIREIGSINLKKNEPPLTCPYSLKARVLLLSHLARMKIPETLEEDQQFMLKKCPALLQEMVNVICQLIVMARNREEREFRAPTLASLENCMKLSQMAVQGLQQFKSPLLQLPHIEEDNLRRVSNHKKYKIKTIQDLVSLKESDRHTLLHFLEDEKYEEVMAVLGSFPYVTMDIKSQVLDDEDSNNITVGSLVTVLVKLTRQTMAEVFEKEQSICAAEEQPAEDGQGETNKNRTKGGWQQKSKGPKKTAKSKKKKPLKKKPTPVLLPQSKQQKQKQANGVVGNEAAVKEDEEEVSDKGSDSEEEETNRDSQSEKDDGSDRDSDREQDEKQNKDDEAEWQELQQSIQRKERALLETKSKITHPVYSLYFPEEKQEWWWLYIADRKEQTLISMPYHVCTLKDTEEVELKFPAPGKPGNYQYTVFLRSDSYMGLDQIKPLKLEVHEAKPVPENHPQWDTAIEGDEDQEDSEGFEDSFEEEEEEEEDDD
B6: sp¦Q8WU39¦MZB1_HUMAN (protein, UniProt Q8WU39 23-189, looked up)
Marginal zone B- and …: DRAPLTATAPQLDDEEMYSAHMPAHLRCDACRAVAYQMWQNLAKAETKLHTSNSGGRRELSELVYTDVLDRSCSRNWQDYGVREVDQVKRLTGPGLSEGPEPSISVMVTGGPWPTRLSRTCLHYLGEFGEDQIYEAHQQGRGALEALLCGGPQGACSEKVSATREEL
B7: sp¦Q9BTT0¦AN32E_HUMAN (protein, UniProt Q9BTT0 1-268, looked up)
Acidic leucine-rich nuclear …: MEMKKKINLELRNRSPEEVTELVLDNCLCVNGEIEGLNDTFKELEFLSMANVELSSLARLPSLNKLRKLELSDNIISGGLEVLAEKCPNLTYLNLSGNKIKDLSTVEALQNLKNLKSLDLFNCEITNLEDYRESIFELLQQITYLDGFDQEDNEAPDSEEEDDEDGDEDDEEEEENEAGPPEGYEEEEEEEEEEDEDEDEDEDEAGSELGEGEEEVGLSYLMKEEIQDEEDDDDYVEEGEEEEEEEEGGLRGEKRKRDAEDDGEEEDD
B8: sp¦Q9UHD1¦CHRD1_HUMAN (protein, UniProt Q9UHD1 2-332, looked up)
Cysteine and histidine-rich …: ALLCYNRGCGQRFDPETNSDDACTYHPGVPVFHDALKGWSCCKRRTTDFSDFLSIVGCTKGRHNSEKPPEPVKPEVKTTEKKELCELKPKFQEHIIQAPKPVEAIKRPSPDEPMTNLELKISASLKQALDKLKLSSGNEENKKEEDNDEIKIGTSCKNGGCSKTYQGLESLEEVCVYHSGVPIFHEGMKYWSCCRRKTSDFNTFLAQEGCTKGKHMWTKKDAGKKVVPCRHDWHQTGGEVTISVYAKNSLPELSRVEANSTLLNVHIVFEGEKEFDQNVKLWGVIDVKRSYVTMTATKIEITMRKAEPMQWASLELPAAKKQEKQKDATTD
B9: Alpha-2-macroglobulin (protein, UniProt P01023 24-1474, looked up)
Alpha-2-macroglobulin: SVSGKPQYMVLVPSLLHTETTEKGCVLLSYLNETVTVSASLESVRGNRSLFTDLEAENDVLHCVAFAVPKSSSNEEVMFLTVQVKGPTQEFKKRTTVMVKNEDSLVFVQTDKSIYKPGQTVKFRVVSMDENFHPLNELIPLVYIQDPKGNRIAQWQSFQLEGGLKQFSFPLSSEPFQGSYKVVVQKKSGGRTEHPFTVEEFVLPKFEVQVTVPKIITILEEEMNVSVCGLYTYGKPVPGHVTVSICRKYSDASDCHGEDSQAFCEKFSGQLNSHGCFYQQVKTKVFQLKRKEYEMKLHTEAQIQEEGTVVELTGRQSSEITRTITKLSFVKVDSHFRQGIPFFGQVRLVDGKGVPIPNKVIFIRGNEANYYSNATTDEHGLVQFSINTTNVMGTSLTVRVNYKDRSPCYGYQWVSEEHEEAHHTAYLVFSPSKSFVHLEPMSHELPCGHTQTVQAHYILNGGTLLGLKKLSFYYLIMAKGGIVRTGTHGLLVKQEDMKGHFSISIPVKSDIAPVARLLIYAVLPTGDVIGDSAKYDVENCLANKVDLSFSPSQSLPASHAHLRVTAAPQSVCALRAVDQSVLLMKPDAELSASSVYNLLPEKDLTGFPGPLNDQDNEDCINRHNVYINGITYTPVSSTNEKDMYSFLEDMGLKAFTNSKIRKPKMCPQLQQYEMHGPEGLRVGFYESDVMGRGHARLVHVEEPHTETVRKYFPETWIWDLVVVNSAGVAEVGVTVPDTITEWKAGAFCLSEDAGLGISSTASLRAFQPFFVELTMPYSVIRGEAFTLKATVLNYLPKCIRVSVQLEASPAFLAVPVEKEQAPHCICANGRQTVSWAVTPKSLGNVNFTVSAEALESQELCGTEVPSVPEHGRKDTVIKPLLVEPEGLEKETTFNSLLCPSGGEVSEELSLKLPPNVVEESARASVSVLGDILGSAMQNTQNLLQMPYGCGEQNMVLFAPNIYVLDYLNETQQLTPEIKSKAIGYLNTGYQRQLNYKHYDGSYSTFGERYGRNQGNTWLTAFVLKTFAQARAYIFIDEAHITQALIWLSQRQKDNGCFRSSGSLLNNAIKGGVEDEVTLSAYITIALLEIPLTVTHPVVRNALFCLESAWKTAQEGDHGSHVYTKALLAYAFALAGNQDKRKEVLKSLNEEAVKKDNSVHWERPQKPKAPVGHFYEPQAPSAEVEMTSYVLLAYLTAQPAPTSEDLTSATNIVKWITKQQNAQGGFSSTQDTVVALHALSKYGAATFTRTGKAAQVTIQSSGTFSSKFQVDNNNRLLLQQVSLPELPGEYSMKVTGEGCVYLQTSLKYNILPEKEEFPFALGVQTLPQTCDEPKAHTSFQISLSVSYTGSRSASNMAIVDVKMVSGFIPLKPTVKMLERSNHVSRTEVSSNHVLIYLDKVSNQTLSLFFTVLQDVPVRDLKPAIVKVYDYYETDEFAIAEYNAPCSKDLGNA

System: human HL60 cells
Experiment: SWATH-MS proteomics, differential protein representation, akirin2 KO vs WT HL60 cells
Type: cell-based
Details: KO vs WT HL60 cells; sheet "Under-represented in KO"
How it was run: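 Three biological replicates per genotype; 150 µg protein FASP/trypsin digested; IDA library (3 µg digest); SWATH variable windows, 5 µg/sample, 3.6 s cycle; gradient 5–30% B 120 min then 30–60% B 15 min; 1% global FDR; TAS normalization.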

Row | Molecule | Fold Change | Log (Fold Change)
1 | B1 | 0.5176 | -0.286
2 | B2 | 0.5201 | -0.2839
3 | B3 | 0.5207 | -0.2834
4 | B4 | 0.5221 | -0.2822
5 | B5 | 0.5228 | -0.2816
6 | B6 | 0.5261 | -0.279
7 | B7 | 0.5286 | -0.2769

Same assay, conditions: SWATH-MS, akirin2 KO vs WT HL60 cells; over-represented in KO

Row | Molecule | Fold Change | Log (Fold Change)
8 | B8 | 1.486 | 0.1721
9 | B9 | 4.777 | 0.6792
